Results as given in IntAct's records for PubMed 22982234.

B1: Myosin-binding protein C, cardiac-type (Mus musculus), O70468 (parent)
chain: MPEPGKKPVSAFNKKPRSAEVTAGSAAVFEAETERSGVMVRWQRDGSDITANDKYGLAAEGKRHTLTVRDASPDDQGSYAVIAGSSKVKFDLKVTEPAPPEKAESEVAPGAPEEVPAPATELEESVSSPEGSVSVTQDGSAAEHQGAPDDPIGLFLMRPQDGEVTVGGSIVFSARVAGASLLKPPVVKWFKGKWVDLSSKVGQHLQLHDSYDRASKVYLFELHITDAQTTSAGGYRCEVSTKDKFDSCNFNLTVHEAIGSGDLDLRSAFRRTSLAGAGRRTSDSHEDAGTPDFSSLLKKRDSFRRDSKLEAPAEEDVWEILRQAPPSEYERIAFQHGVEACHRPLKRLKGMKQDEKKSTAFQKKLEPAYQVNKGHKIRLTVELADPDAEVKWLKNGQEIQMSGSKYIFESVGAKRTLTISQCSLADDAAYQCVVGGEKCSTELFVKEPPVLITRSLEDQLVMVGQRVEFECEVSEEGAQVKWLKDGVELTREETFKYRFKKDGRKHHLIINEATLEDAGHYAVRTSGGQSLAELIVQEKKLEVYQSIADLAVGAKDQAVFKCEVSDENVRGVWLKNGKELVPDNRIKVSHIGRVHKLTIDDVTPADEADYSFVPEGFACNLSAKLHFMEVKIDFVPRQEPPKIHLDCPGSTPDTIVVVTGNKLRLDVPISGDPAPTVVWQKTVTQGKKASAGPHPDAPEDAGADEEWVFDKKLLCETEGRVRVETTKDRSVFTVEGAEKEDEGVYTVTVKNPVGEDQVNLTVKVIDVPDAPAAPKISNVGEDSCTVQWEPPAYDGGQPVLGYILERKKKKSYRWMRLNFDLLRELSHEARRMIEGVAYEMRVYAVNAVGMSRPSPASQPFMPIGPPGEPTHLAVEDVSDTTVSLKWRPPERVGAGGLDGYSVEYCQEGCSEWTPALQGLTERRSMLVKDLPTGARLLFRVRAHNVAGPGGPIVTKEPVTVQEILQRPRLQLPRHLRQTIQKKVGEPVNLLIPFQGKPRPQVTWTKEGQPLAGEEVSIRNSPTDTILFIRAARRTHSGTYQVTVRIENMEDKATLILQIVDKPSPPQDIRIVETWGFNVALEWKPPQDDGNTEIWGYTVQKADKKTMEWFTVLEHYRRTHCVVSELIIGNGYYFRVFSHNMVGSSDKAAATKEPVFIPRPGITYEPPKYKALDFSEAPSFTQPLANRSIIAGYNAILCCAVRGSPKPKISWFKNGLDLGEDARFRMFCKQGVLTLEIRKPCPYDGGVYVCRATNLQGEAQCECRLEVRVPQ

Variants of: B1
Conditions: with actc_mouse Actc1, P68033

| effect of a mutation on the interaction | Variant |
| --- | --- |
| disrupting interaction strength | R279A;R280A;T281A |
| disrupting interaction strength | R304A;R305A |
| disrupting interaction strength | R279A;R280A |
| disrupting interaction strength | K188A;K191A;K193A |

Variants of: B1
Conditions: with myh6_mouse Myh6, Q02566
Chain of myh6_mouse Myh6, Q02566 (Q02566 whole entry): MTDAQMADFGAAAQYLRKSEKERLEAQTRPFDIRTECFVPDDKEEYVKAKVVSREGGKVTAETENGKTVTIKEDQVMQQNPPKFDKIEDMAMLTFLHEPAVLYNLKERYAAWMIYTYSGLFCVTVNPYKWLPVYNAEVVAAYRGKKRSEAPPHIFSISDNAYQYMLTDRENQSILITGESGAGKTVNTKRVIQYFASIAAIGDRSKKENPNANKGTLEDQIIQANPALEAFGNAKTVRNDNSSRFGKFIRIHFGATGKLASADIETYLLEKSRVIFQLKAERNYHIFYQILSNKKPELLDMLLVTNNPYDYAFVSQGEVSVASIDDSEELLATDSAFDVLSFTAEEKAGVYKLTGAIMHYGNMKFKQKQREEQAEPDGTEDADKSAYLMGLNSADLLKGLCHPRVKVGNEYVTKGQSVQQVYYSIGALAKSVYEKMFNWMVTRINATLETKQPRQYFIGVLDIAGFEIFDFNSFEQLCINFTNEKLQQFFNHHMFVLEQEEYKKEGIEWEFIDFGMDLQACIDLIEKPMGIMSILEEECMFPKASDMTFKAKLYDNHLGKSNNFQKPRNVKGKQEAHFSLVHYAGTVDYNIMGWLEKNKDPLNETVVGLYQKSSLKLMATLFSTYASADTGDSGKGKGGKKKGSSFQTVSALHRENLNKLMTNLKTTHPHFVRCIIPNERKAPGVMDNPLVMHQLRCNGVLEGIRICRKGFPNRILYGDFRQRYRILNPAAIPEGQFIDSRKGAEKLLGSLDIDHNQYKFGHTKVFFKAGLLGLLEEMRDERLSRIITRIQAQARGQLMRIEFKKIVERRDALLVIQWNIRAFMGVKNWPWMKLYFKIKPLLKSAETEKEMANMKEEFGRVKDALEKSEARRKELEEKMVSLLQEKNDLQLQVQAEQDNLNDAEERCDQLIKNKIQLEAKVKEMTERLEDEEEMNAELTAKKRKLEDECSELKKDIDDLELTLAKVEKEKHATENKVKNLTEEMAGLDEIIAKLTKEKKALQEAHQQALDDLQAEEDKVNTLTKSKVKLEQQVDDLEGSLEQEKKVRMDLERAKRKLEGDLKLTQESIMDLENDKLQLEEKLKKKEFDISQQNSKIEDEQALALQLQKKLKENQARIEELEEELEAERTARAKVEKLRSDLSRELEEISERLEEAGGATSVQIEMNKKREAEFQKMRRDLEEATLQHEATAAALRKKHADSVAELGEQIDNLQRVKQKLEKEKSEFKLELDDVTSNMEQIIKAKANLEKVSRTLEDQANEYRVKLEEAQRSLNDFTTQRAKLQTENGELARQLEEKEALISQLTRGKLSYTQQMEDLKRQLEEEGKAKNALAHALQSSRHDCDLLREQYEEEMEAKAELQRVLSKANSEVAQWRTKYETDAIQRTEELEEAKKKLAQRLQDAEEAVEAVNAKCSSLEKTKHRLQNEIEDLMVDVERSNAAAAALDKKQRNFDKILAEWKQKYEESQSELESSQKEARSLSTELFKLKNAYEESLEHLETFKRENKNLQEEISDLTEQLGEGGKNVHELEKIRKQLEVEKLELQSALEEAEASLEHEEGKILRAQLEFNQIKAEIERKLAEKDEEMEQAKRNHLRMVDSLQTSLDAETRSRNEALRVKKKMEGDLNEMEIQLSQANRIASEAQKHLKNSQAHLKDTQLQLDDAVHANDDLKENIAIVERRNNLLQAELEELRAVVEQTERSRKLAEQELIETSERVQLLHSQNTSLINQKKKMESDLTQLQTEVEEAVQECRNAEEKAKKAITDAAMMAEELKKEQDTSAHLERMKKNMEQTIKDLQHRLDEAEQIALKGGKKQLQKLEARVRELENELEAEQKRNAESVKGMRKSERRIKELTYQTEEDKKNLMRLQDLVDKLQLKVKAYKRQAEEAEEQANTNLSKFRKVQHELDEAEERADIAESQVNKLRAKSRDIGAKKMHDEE

| effect of a mutation on the interaction | Variant |
| --- | --- |
| disrupting interaction strength | R279A;R280A;T281A |
| disrupting interaction strength | K298A;K299A |
| disrupting interaction strength | K298A;K299A;R300A |
| disrupting interaction strength | R266A;R270A;R271A |
